Test system: MS2 coat protein
Assay: apparent KD of MS2 coat protein; designed switch direction (-1 OFF switch, 1 ON switch): -1; higher = weaker reporter binding
In short: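 The apparent KD reported per design is the median over clusters of curve fits to normalised cluster fluorescence. The RNA switches were transcribed on Illumina chips by stalled E. coli RNA polymerase. SNAP-549-labelled MS2 coat protein was titrated from 0.7 or 1.5 nM, doubling up to 3 µM, in Tris-HCl pH 7.5 buffer containing KCl, MgCl2, BSA, DTT, tRNA and Tween-20, with no input, 200 uM small-molecule ligand, or an oligonucleotide input.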

[1] = input ligand: microRNA oligo, concentration not stated
[2] = Eterna round: R95, input ligand: FMN 200 uM
[3] = Eterna round: R95, input ligand: microRNA oligo, concentration not stated
[4] = Eterna round: R95, input ligand: none

Row | Sequence | apparent KD of MS2 coat protein (input ligand: FMN 200 uM) [nM] | apparent KD of MS2 coat protein [1] [nM] | apparent KD of MS2 coat protein (input ligand: none) [nM] | apparent KD of MS2 coat protein [2] [nM] | apparent KD of MS2 coat protein [3] [nM] | apparent KD of MS2 coat protein [4] [nM]
1 | GAUGUCCAGCGAGGAUAUCUGGUAAAUAAAAUGAGAGAAGGCGCGAAGACAUGAGGAUCACCCAUGUUGUCGCAUGGGAGCCUG [Enqurete] (Eterna round: R96, puzzle: Exclusion NG 1) | 116 | 22.9 | 29.1 |  |  | 
2 | GAUGUGGGUUUUCAGAGUAACAUGAGGAUCACCCAUGUAGAAGUUGAAGGUAUCAAGCGAAUGGCUCGUCAUAUGUG [JR_SV3TOV1_Sub050] (puzzle: Sensor v3, turn-off variant 1) |  |  |  | 161 | 239 | 322
3 | GAUUAACAUGAGGAUCACCCAUGUGAGGAUAUUGACUUGCUCACUUUCCGAUUCGAGUCGAGAAGGCGCAUCUU [1986#117] (Eterna round: R97, puzzle: Exclusion 1) | 23.9 |  | 21.9 |  |  | 
4 | GAUUAAUGCAAGGAUAUGCUAUUAAUUUAUUUUGCAGAAGGUGCAACAUGAGGAUCACCCAUGUUGGAGGGUAU [JR_E6_Sub027] (Eterna round: R96, puzzle: Exclusion 6) | 34.9 | 17.8 | 25.1 |  |  | 
5 | GAUUAAUGCAAGGAUAUGCUAUUAAUUUAUUUUGCAGAAGGUGCAACAUGAGGAUCACCCAUGUUGGAGGGUAU [JR_E6_Sub027] (puzzle: Exclusion 6) |  |  |  |  | 18.8 | 
6 | GAUUAUGCAAGCUUUUGGGACAUGAGGAUCACCCAUGUUCGUCUUAUUGAUCUAGGUACGCUGACGUACCUAGAUCU [JL-sv1-2.32 Brourd mod] (Eterna round: R96, puzzle: Sensor v3, turn-off variant 1) | 14.8 | 52.1 | 17.2 |  |  | 
7 | GAUUAUGCAAGCUUUUGGGACAUGAGGAUCACCCAUGUUCGUCUUAUUGAUCUAGGUACGCUGACGUACCUAGAUCU [JL-sv1-2.32 Brourd mod] (puzzle: Sensor v3, turn-off variant 1) |  |  |  | 18.1 | 62.2 | 17.6
8 | GAUUAUGCGAGCUUUAGGGACAUGAGGAUCACCCAUGUUCGUCUUAUUGGUCUAGAUGCACUAACAUACCUAAAUCU [JMF 26] (puzzle: Sensor v3, turn-off variant 1) |  |  |  | 18 | 24.4 | 18.2
9 | GAUUCGCGAGGAUAUACAGUCGAGUCCAUUACGUGUCUCGGACUUGAGGAUCACCCAAGUAGAAGGCGUCUCAU [salish99_ex2_r4_637] (Eterna round: R97, puzzle: Exclusion 2) | 55.8 |  | 57.8 |  |  | 
10 | GAUUGACAUGAGGAUCACCCAUGUGAGGAUAUCGGCCGGACCGUGUUAGCUUCCGUCGCGAGAAGGCGCAUAGG [Exclusion 1 V38] (puzzle: Exclusion 1) |  |  |  | 42.3 | 42.8 | 36.7
11 | GAUUGACAUGAGGAUCACCCAUGUGAGGAUAUCGUCUGGUACGUGUUGGCUGGCAUCUCGAGAAGGCGCAUAGG [Exclusion 1 V56] (puzzle: Exclusion 1) |  |  |  | 103 | 59.4 | 76.4
12 | GAUUUGUAAGGAUAUCGUGCAAGUUUCAAAAGAGGCUUGUGCGAGAAGGUACAUGAGGAUCACCCAUGUAGGUU [Omei Ex4 B13] (Eterna round: R97, puzzle: Exclusion 4) | 42.6 |  | 24.1 |  |  | 
13 | GCAAGAGCAGGAUAUCUAAUAUAUCACAUGAGGAUCACCCAUGUCCAGCGAAAGCUGGAGGGAGAAGGGCUCUUGC [Mat - Exclusion 5 - Eli mod - D101] (puzzle: Exclusion 5) |  |  |  | 58.9 | 123 | 150
14 | GCAAGCUUUUUCAAUAACAACAUGAGGAUCACCCAUGUUUAAGCUAUUACUUUUGGGCUCUUUAGUGCUAGUCUUAU [JR_STOV1_Sub037] (Eterna round: R97, puzzle: Sensor, turn-off variant 1) | 19.1 |  | 17.7 |  |  | 
15 | GCACAGGCAGGAUAUACAUGAGGAUCACCCAUGUGAUCCCUUAAGUACAAAAGUACUAGUAGAAGGGCCUGUGC [Omei Ex3 Model Bachelor's Dilema v47] (Eterna round: R97, puzzle: Exclusion 3) | 646 |  | 1210 |  |  | 
16 | GCACAGUGAGGAUAUACAUGAGGAUCACCCAUGUCCGCCGAUUAAGAGGUAUCAACGUGUAGAAGGUACCAGCG [Eternabot (Original) Solution 25] (Eterna round: R97, puzzle: Exclusion 3) | 17.2 |  | 18.5 |  |  | 

Row | Sequence | apparent KD of MS2 coat protein (input ligand: FMN 200 uM) [nM] | apparent KD of MS2 coat protein [1] [nM] | apparent KD of MS2 coat protein (input ligand: none) [nM] | apparent KD of MS2 coat protein [2] [nM] | apparent KD of MS2 coat protein [3] [nM] | apparent KD of MS2 coat protein [4] [nM]
17 | GCACGAAGUGUAGGAUAUCUGUGCGAUUAGCUCAGAGAAGGACACAUGAGGAUCACCCAUGUGUUCCGCGGAAGCAAAACGUGC [Eli exng1 - 056] (Eterna round: R96, puzzle: Exclusion NG 1) | 11.2 | 9.08 | 11.4 |  |  | 
18 | GCACGACAUGAGGAUCACCCAUGUGAGGAUAUUUAGACGCCUGUGAAUGCAGCCAUUUAGAGAAGGCAUUGGGU [Eternabot (L1) Solution 99] (Eterna round: R97, puzzle: Exclusion 1) | 129 |  | 43.9 |  |  | 
19 | GCACGGAGUGUAGGAUAUCUGUGCGAUUAGCUCAGAGAAGGACACAUGAGGAUCACCCAUGUGUUCCACGGAAACGUUCCGUGC [Eli exng1 - 049] (Eterna round: R96, puzzle: Exclusion NG 1) | 8.96 | 7.93 | 11.9 |  |  | 
20 | GCACGGAGUGUAGGAUAUUAGUGCGAUUAGCACUGAGAAGGACAUGAGGAUCACCCAUGUUCCUCUAAAAUUAGCCUUCCGUGC [Eli exng1 - 036] (Eterna round: R96, puzzle: Exclusion NG 1) | 12.4 | 10.7 | 14.8 |  |  | 
21 | GCACGGAUCGUAGGAUAUCAUUGCGAUUAGCUAUGAGAAGGACGACAUGAGGAUCACCCAUGUCCUCUAAUUAGCCUUCCGUGC [Eli exng1 - 017] (Eterna round: R96, puzzle: Exclusion NG 1) | 52.9 | 21.8 | 38.5 |  |  | 
22 | GCACGGAUGGUAGGAUAUCUGUGCGAUUAGCUCAGAGAAGGACCACAUGAGGAUCACCCAUGUACCUCAAUUAACCUUCCGUGC [Eli exng1 - 021] (Eterna round: R96, puzzle: Exclusion NG 1) | 16.9 | 21 | 17.6 |  |  | 
23 | GCACGGUAAGUGAGGAUAUACCUCUGGAUACAGAGGUAGAAGGCACAUGAGGAUCACCCAUGUCUCAGCCGUGC [Fiskers BMX 4 - 87] (puzzle: Brourd's mod of Exclusion 4) |  |  |  |  | 16.8 | 
24 | GCACUGCGAGGAUAUACAUGAGGAUCACCCAUGUGUCGGCAGCCAUGUCAGUACAAAUGUAGAAGGCGCGUAAA [EX3 #54] (Eterna round: R97, puzzle: Exclusion 3) | 87.5 |  | 28.8 |  |  | 
25 | GCAGAAUACUAGGAUAUGUUGGUCGGAGGGCCAACAGAAGGAGUUACAUGAGGAUCACCCAUGUUCCCAAUGGG [Eternabot (Original) Solution 49] (Eterna round: R97, puzzle: Exclusion 6) | 66.1 |  | 52.7 |  |  | 
26 | GCAGAAUGAGUUAGGAUAUGAUGAUUUUUCGGAAAUCAGAAGGAACUUGAGGAUCACCCAAGUAAAGAUAGGGU [JR_BMEx4_Sub064] (Eterna round: R97, puzzle: Brourd's mod of Exclusion 4) | 358 |  | 236 |  |  | 
27 | GCAGAAUGAGUUAGGAUAUGAUGAUUUUUCGGAAAUCAGAAGGAACUUGAGGAUCACCCAAGUUAAGAUAGGGU [JR_BMEx4_Sub065] (Eterna round: R97, puzzle: Brourd's mod of Exclusion 4) | 229 |  | 85 |  |  | 
28 | GCAGCAACUCUAAUCAAACCAACAUGAGGAUCACCCAUGUCUCAGGAUAUGGUCUGGAUUACAGGCCAGAAGGGAGAAAGCUGC [Eli exng3 - 047] (Eterna round: R96, puzzle: Exclusion NG 3) | 11.6 | 11.4 | 14.9 |  |  | 
29 | GCAGCAACUCUAAUCAAAUCAACAUGAGGAUCACCCAUGUCUCAGGAUAUGGUCUGGAUUACAGGCCAGAAGGGAGAAAGCUGC [Eli exng3 - 048] (Eterna round: R96, puzzle: Exclusion NG 3) | 16.5 | 13.9 | 16.6 |  |  | 
30 | GCAGCACAUGUAGGAUAUCUGCACGAUUAGUGCAGAGAAGGACAUGAGGAUCACCCAUGUAAUUAAGAUCAAUUAUUAAGCUGC [ENG1/3-C1] (Eterna round: R96, puzzle: Exclusion NG 1) | 374 | 36.4 | 46.1 |  |  | 
31 | GCAGCACAUGUAGGAUAUCUGCACGUUUAGUGCAGAGAAGGACAUGAGGAUCACCCAUGUAAUUAAGAUCAAUUAUUAAGCUGC [ENG1/3-C2] (Eterna round: R96, puzzle: Exclusion NG 1) | 178 | 32.1 | 44.2 |  |  | 
32 | GCAGCGUAUGUAGGAUAUCGGUCAGUUUCUGAUCGAGAAGGACAUGAGGAUCACCCAUGUAUUAUCAUGCGUGAGCAUGGCUGC [JL ENG1 3.71] (Eterna round: R96, puzzle: Exclusion NG 1) | 499 | 115 | 152 |  |  | 

— the supplement of paper PMC9170038
